# In PMC5531588, “Staphylococcus aureus single-stranded DNA-binding protein SsbA can bind but cannot stimulate PriA helicase”:
# Assays:
# [1] = biological target: Staphylococcus aureus PriA helicase (S. aureus); assay: SPR; SaPriA immobilised on CM5 chip, Biacore T200, 293 K, 40 mM Tris, 200 mM NaCl, 0.05% Tween-20, pH 8.0; analyte injected 120 s at 30 uL/min; 1:1 (Langmuir) model
# [2] = biological target: Staphylococcus aureus single-stranded DNA-binding protein SsbA (S. aureus subsp. aureus ED98); assay: SEC; purified SaSsbA (2 mg/mL) on Superdex 200 prep grade in Buffer B (20 mM HEPES, 100 mM NaCl, pH 7.0), calibrated with proteins of known molecular weight
# SaSsbA = SaSsbA (Staphylococcus aureus subsp. aureus ED98, UniProt A0A0D1JHQ1 1-167); assay: EMSA; 100 mM NaCl; EMSA: 20 mM Tris-HCl pH 8.0, 100 mM NaCl (or 0.4 M NaCl), 1.7 nM DNA, 25 C, 30 min; native 8% PAGE in TBE at 4 C; details: protein: recombinant; chain copies: 4; label: 32P (5' end, T4 PNK); single strand
molecule,measurement,setting,value
Staphylococcus aureus single-stranded DNA-binding protein SsbA (natural protein),Kd,[1],46 nM
same,stoichiometry N,[2],4
TTTTTTTTTTTTTTTTTTTTTTTTTTTTTT (ssDNA) [dT30],apparent K (half saturation),SaSsbA,186 ± 20 nM
TTTTTTTTTTTTTTTTTTTTTTTTTTTTTTTTTTTTTTTT (ssDNA) [dT40],apparent K (half saturation),SaSsbA,90 ± 5 nM
TTTTTTTTTTTTTTTTTTTT (ssDNA) [dT20],apparent K (half saturation),SaSsbA,292 ± 28 nM
